Reference: article PMC3692002 (Proteins, 2011)

Target: the molecule itself
Experiment: static light scattering

B1: UgR76, uncharacterized 73 residue domain from Ruminococcus gnavus (domain or fragment)
chain: MSEHREGTLFYDTETGRYDIRFDLESFYGGLHCGECFDVKVKDVWVPVRIEMGDDWYLVGLNVSRLDGLRVRMLEHHHHHH
With B1 the “stoichiometry N” value was 2.
